Measured values published in the supplement of paper PMC10126150.
± gives the standard deviation of the averaged measurements.

system: ATP; assay: switch fluorescence ratio, 500 uM ATP over buffer (Cy3 cluster intensity, sum of 5 cycles each) (fold (ratio)); higher = stronger signal-on switching upon ATP binding; sequences stand for … in TCGTCGGCAGCGTCAGATGTGTATAAGAGACAGTTTTTTTTTTTTTTTTTTTTTTTTT…TC; settings: aptamer strand: ATP DNA aptamer (quencher-CACCTGGGGGAGTATTGCGGAGGAAGG + anchor), 100 nM annealed; ATP concentration: 500 uM
Summary of the method: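 Per cluster, summed Cy3 intensity from the target cycles was divided by that from the buffer cycles to give the fluorescence ratio, then averaged per switch-domain sequence. Clusters outside 100-1000 RFU were excluded. The Cy3-labelled switching-strand clusters, on a modified Illumina MiSeq flow-cell, were annealed to 100 nM quencher-labelled ATP aptamer and imaged in selection buffer, then after 15 min with 500 uM ATP at 22 °C, for five cycles with NaOH stripping and re-annealing between them.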
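Also: ATP exposure 15 min at 22 °C before imaging.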

Sequence | switch fluorescence ratio
CGGATATGGA | 0.988 ± 0.058
CGGATATGGC | 1.03 ± 0.1
CGGATATTGC | 1 ± 0.059
CGGATCCAGG | 1.35 ± 0.042
CGGATCGATT | 0.9907 ± 0.0018
CGGATGAGTG | 0.953 ± 0.1
CGGATGGGGC | 1 ± 0.042
CGGATTAGGT | 0.993 ± 0.028
CGGATTCGTA | 0.986 ± 0.036
CGGATTGTAG | 1.03 ± 0.04
CGGCAAGTGG | 1.05 ± 0.031
CGGCAATCCT | 3.99 ± 0.15
CGGCAGGGGG | 1.06 ± 0.1
CGGCATGCGG | 1.022 ± 0.0035
CGGCATGGAG | 0.996 ± 0.025
CGGCCAGCTG | 1.03 ± 0.03
CGGCCCACGC | 1.04 ± 0.082
CGGCCCAGAA | 1 ± 0.015
CGGCCGTATA | 0.998 ± 0.013
CGGCCTAAGG | 1.01 ± 0.016
CGGCGAGAAC | 1.045 ± 0.0023
CGGCGCGGAT | 1.02 ± 0.04
CGGCGGCACC | 1.0893 ± 0.00071
CGGCGGCAG | 1.03 ± 0.064
CGGCGGGAAG | 1 ± 0.023

Sequence | switch fluorescence ratio
CGGCGGGAGC | 1.05 ± 0.038
CGGCGGGCTG | 0.989 ± 0.062
CGGCGGGGTG | 1.04 ± 0.055
CGGCGGGTCT | 0.98 ± 0.052
CGGCGGGTGG | 1.02 ± 0.041
CGGCGTAGGG | 1.12 ± 0.15
CGGCGTTATG | 0.988 ± 0.014
CGGCTAAGGG | 0.981 ± 0.014
CGGCTACTTT | 1.03 ± 0.038
CGGCTATGTG | 0.985 ± 0.027
CGGCTATTAA | 1.044 ± 0.0086
CGGCTGCGTG | 0.998 ± 0.0073
CGGCTGGCGA | 1.01 ± 0.059
CGGCTGGCTG | 1.04 ± 0.011
CGGCTGGTCA | 0.984 ± 0.021
CGGCTGTCAC | 1.03 ± 0.025
CGGCTGTGGT | 1.01 ± 0.03
CGGCTTGGT | 1.02 ± 0.015
CGGCTTGTG | 0.99726 ± 0.00036
CGGGAAAACG | 0.995 ± 0.012
CGGGAAATGG | 1.007 ± 0.0064
CGGGAACGGA | 0.984 ± 0.033
CGGGAACGGT | 1.01 ± 0.026
CGGGAACTTT | 1.02 ± 0.065
CGGGAAGCTT | 1 ± 0.082

Sequence | switch fluorescence ratio
CGGGAAGGGC | 1.19 ± 0.32
CGGGAAGTTC | 1.03 ± 0.016
CGGGAATCGT | 1 ± 0.05
CGGGAATGGC | 1.06 ± 0.079
CGGGAATTTT | 1 ± 0.013
CGGGACATAG | 0.964 ± 0.026
CGGGACCGGA | 1.02 ± 0.073
CGGGACCTGG | 0.958 ± 0.077
CGGGACGGAG | 0.997 ± 0.11
CGGGAGAAAG | 1 ± 0.022
CGGGAGATTA | 0.9872 ± 0.0084
CGGGAGGGAC | 0.994 ± 0.057
CGGGAGGGAG | 1 ± 0.05
CGGGAGGTAT | 1 ± 0.012
CGGGATCTGT | 1.01 ± 0.024
CGGGATGTCA | 0.955 ± 0.038
CGGGCAACGT | 1.02 ± 0.037
CGGGCAAGGT | 1.038 ± 0.01
CGGGCATTGT | 1.01 ± 0.051
CGGGCCTTTT | 1 ± 0.023
CGGGCGAGGA | 0.989 ± 0.029
CGGGCGCAGT | 1.02 ± 0.043
CGGGCGGGAC | 1.59 ± 0.021
CGGGCGGGGG | 1.06 ± 0.12
CGGGCTCAGC | 1.008 ± 0.0094

Sequence | switch fluorescence ratio
CGGGCTTATT | 0.988 ± 0.02
CGGGCTTTTT | 1.016 ± 0.0065
CGGGGAAATG | 0.997 ± 0.023
CGGGGAAGTT | 0.9847 ± 0.0079
CGGGGACGAC | 1.63 ± 0.72
CGGGGACTGG | 0.9726 ± 0.0072
CGGGGAGGTG | 1.1 ± 0.087
CGGGGAGTCG | 0.945 ± 0.023
CGGGGATGGC | 0.979 ± 0.011
CGGGGATGGG | 0.992 ± 0.022
CGGGGATTAG | 0.994 ± 0.017
CGGGGATTGC | 1.01 ± 0.016
CGGGGCCTTT | 1.02 ± 0.037
CGGGGCGGAT | 1.04 ± 0.016
CGGGGCTTAT | 0.9909 ± 0.0014
CGGGGGAAGC | 1.02 ± 0.041
CGGGGGACGG | 0.982 ± 0.029
CGGGGGAGAC | 0.971 ± 0.019
CGGGGGAGCT | 1.02 ± 0.029
CGGGGGATGC | 1.05 ± 0.036
CGGGGGATTA | 1.02 ± 0.049
CGGGGGCAGA | 1 ± 0.023
CGGGGGCCCT | 1.01 ± 0.034
CGGGGGCGCT | 1.02 ± 0.013
CGGGGGCTGC | 1.13 ± 0.1

Sequence | switch fluorescence ratio
CGGGGGGAGC | 1.01 ± 0.056
CGGGGGGATG | 1.01 ± 0.033
CGGGGGGATT | 0.997 ± 0.012
CGGGGGGCAT | 0.994 ± 0.022
CGGGGGGCCT | 1.01 ± 0.028
CGGGGGGGAA | 0.999 ± 0.03
CGGGGGGGG | 1 ± 0.059
CGGGGGGTCA | 1.01 ± 0.018
CGGGGGGTGC | 1.01 ± 0.082
CGGGGGTGTT | 0.998 ± 0.023
CGGGGGTTAC | 1.4 ± 0.56
CGGGGTACGG | 1.01 ± 0.017
CGGGGTATTG | 0.999 ± 0.039
CGGGGTCGG | 1 ± 0.014
CGGGGTCTGG | 0.978 ± 0.015
CGGGGTGGGT | 0.978 ± 0.028
CGGGGTGGTG | 1.04 ± 0.067
CGGGGTGTT | 0.994 ± 0.017
CGGGGTTAGC | 1.01 ± 0.014
CGGGTAACTT | 1.02 ± 0.046
CGGGTAGCTT | 1.017 ± 0.0093
CGGGTAGGGT | 0.998 ± 0.039
CGGGTATATT | 1.01 ± 0.032
CGGGTCATTT | 0.9691 ± 0.0035
CGGGTCGAGC | 1 ± 0.03

Sequence | switch fluorescence ratio
CGGGTCGCGG | 0.992 ± 0.031
CGGGTCGGCG | 1.01 ± 0.049
CGGGTCTAGC | 1.01 ± 0.021
CGGGTGCGTG | 0.981 ± 0.017
CGGGTGGCTG | 0.995 ± 0.035
CGGGTTAGTC | 1.07 ± 0.027
CGGGTTCTCG | 0.978 ± 0.025
CGGGTTGAG | 0.9967 ± 0.0066
CGGGTTGCAG | 0.97 ± 0.019
CGGGTTTAAG | 0.9933 ± 0.0026
CGGGTTTGGA | 0.998 ± 0.035
CGGGTTTGTT | 0.997 ± 0.02
CGGTACTTAT | 0.983 ± 0.017
CGGTAGAGGG | 0.982 ± 0.037
CGGTAGAGGT | 1.01 ± 0.016
CGGTAGGAAT | 1.018 ± 0.0077
CGGTAGTCGG | 1.03 ± 0.027
CGGTAGTTGT | 0.981 ± 0.014
CGGTATAATT | 0.999 ± 0.042
CGGTATATTT | 0.9712 ± 0.0058
CGGTATGAGG | 0.9 ± 0.11
CGGTCAATTG | 1 ± 0.036
CGGTCGACGA | 1.01 ± 0.024
CGGTCTGAGG | 1.017 ± 0.002
CGGTGAAGGG | 0.994 ± 0.027

Sequence | switch fluorescence ratio
CGGTGACTGC | 1.02 ± 0.099
CGGTGAGTAG | 0.9876 ± 0.0092
CGGTGCCAAG | 0.988 ± 0.042
CGGTGCTTGT | 1.02 ± 0.037
CGGTGGACTA | 1.008 ± 0.01
CGGTGGAGCT | 1.01 ± 0.052
CGGTGGCATA | 1.04 ± 0.018
CGGTGGCCGT | 1.02 ± 0.019
CGGTGGCGTA | 0.9975 ± 0.0035
CGGTGGCTGC | 0.967 ± 0.011
CGGTGGGATT | 0.979 ± 0.019
CGGTGGGTAA | 1.01 ± 0.026
CGGTGGGTC | 1.009 ± 0.0047
CGGTGGTCAG | 1.01 ± 0.0076
CGGTGTATTT | 0.9547 ± 0.0037
CGGTGTGTAG | 0.983 ± 0.062
CGGTGTGTCC | 0.97164 ± 0.00017
CGGTTAAGGC | 1.07 ± 0.017
CGGTTACGGA | 0.977 ± 0.035
CGGTTAGGTG | 1.06 ± 0.021
CGGTTATAGG | 0.967 ± 0.012
CGGTTATGGC | 0.978 ± 0.019
CGGTTCCCTA | 0.978 ± 0.033
CGGTTCGAGT | 1.01 ± 0.035
CGGTTGAATG | 0.98841 ± 0.00073

Sequence | switch fluorescence ratio
CGGTTGATCT | 1.09 ± 0.13
CGGTTGGCAA | 1.09 ± 0.054
CGGTTGGCCA | 1 ± 0.018
CGGTTGGGTC | 1.05 ± 0.051
CGGTTGGTGG | 1.01 ± 0.014
CGGTTTAAGC | 0.994 ± 0.046
CGGTTTAATA | 1.03 ± 0.07
CGGTTTACGT | 0.997 ± 0.018
CGGTTTAGGT | 0.951 ± 0.017
CGGTTTGATT | 1.04 ± 0.073
CGGTTTGCAG | 0.972 ± 0.043
CGGTTTGGAG | 0.995 ± 0.056
CGGTTTTACT | 1.04 ± 0.021
CGGTTTTCTT | 0.995 ± 0.012
CGGTTTTTAT | 0.983 ± 0.018
CGGTTTTTGT | 0.9992 ± 0.008
CGTAAAGGGA | 0.987 ± 0.013
CGTAACTTAC | 1.6 ± 0.097
CGTAAGACGT | 1.03 ± 0.044
CGTAATTGTA | 1.01 ± 0.018
CGTAATTTTC | 1.09 ± 0.083
CGTACAAGTC | 0.963 ± 0.058
CGTACAGCAG | 1.01 ± 0.054
CGTACCAGGG | 1.32 ± 0.036
CGTACCATCC | 1.6 ± 0.18
